For one substance, 24-hour cytotoxicity against NB1691 cells results are on record in patent EP3057986B1.

The assay has as its target CD16V-BB-ζ chimeric receptor (human). The assay is described as follows: cell-based or functional assay.

As for hu14.18K322A (antibody), the 24-hour cytotoxicity against NB1691 cells at 1:8 E:T is greater than 50%.
